Source: the supplement of paper PMC7877785
± gives the uncertainty stated by the source.

Assay: self-splicing fitness, log relative to wild type (ln ratio); higher = more splicing; Tetrahymena group I intron in knt gene, E. coli kanamycin selection, DiMSum; sequences stand for … in CUCUCU…GGAGGGAAAAGUUAUCAGGCAUGCACCUGGUAGCUAGUCUUUAAACCAAUAGAUUGCAUCGGUUUAAAAGGCAAGACCGUCAAAUUGCGGGAAAGGGGUCAACAGCCGUUCAGUACCAAGUCUCAGGGGAAACUUUGAGAUGGCCUUGCAAAGGGUAUGGUAAUAAGCUGACGGACAUGGUCCUAACCACGCAGCCAAGUCCUAAGUCAACAGAUCUUCUGUUGAUAUGGAUGCAGUUCACAGACUAAAUGUCGGUCGGGGAAGAUGUAUUCUUCUCAUAAGAUAUAGUCGGACCUCUCCUUAAUGGGAGCUAGCGGAUGAAGUGAUGCAACACUGGAGCCGCUGGGAACUAAUUUGUAUGCGAAAGUAUAUUGAUUAGUUUUGGAGUACUCGUGGUCG
How it was run: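 A randomised library covering all eight P1ex-region intron nucleotides was built with the intron in the knt kanamycin-resistance gene on pET-22b(+) and held in E. coli BL21(DE3). Cells were grown overnight at 37°C or 30°C on LB agar, with or without 25 μg/mL kanamycin, plus 100 μg/mL carbenicillin, 50 μM IPTG and 0.2% rhamnose, and pooled colonies were amplicon-sequenced on an Illumina HiSeq 2500. DiMSum fitness is the error-weighted combination of wild-type-normalised replicate fold changes, kanamycin versus none.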

Row | Sequence | self-splicing fitness (ln) (30 °C) | self-splicing fitness (ln) (37 °C)
1 | UGCAAGCAAUAUUACGGAUU | -2.63 ± 0.11 | -1.84 ± 0.14
2 | AAAUAGCAAUAUUACGUGUG | -2.05 ± 0.09 | -1.55 ± 0.086
3 | CUUCAGCAAUAUUACGCUCU | -3.79 ± 0.39 | –
4 | AGGCAGCAAUAUUACGAAGG | -1.9 ± 0.22 | -1.56 ± 0.27
5 | GUAAAGCAAUAUUACGUUCC | -2.91 ± 0.18 | 0.158 ± 0.14
6 | GACCAGCAAUAUUACGUGCC | -0.32 ± 0.11 | -0.217 ± 0.13
7 | AUUUAGCAAUAUUACGAUCG | -1.76 ± 0.15 | -0.669 ± 0.12
8 | CCUUAGCAAUAUUACGUAAG | -1.28 ± 0.097 | -0.938 ± 0.12
9 | CUGAAGCAAUAUUACGACCG | 0.3 ± 0.15 | 0.854 ± 0.17
10 | GCGUAGCAAUAUUACGUCGU | -2.13 ± 0.12 | -2.04 ± 0.18
11 | GGGCAGCAAUAUUACGAUGC | -1.98 ± 0.2 | -1.11 ± 0.24
12 | UAACAGCAAUAUUACGAAAC | -4.62 ± 0.38 | -2.75 ± 0.36
13 | AAAAAGCAAUAUUACGUCGU | -1.5 ± 0.061 | -0.928 ± 0.078
14 | GGGAAGCAAUAUUACGUGAA | -2.39 ± 0.18 | -0.692 ± 0.17
15 | ACGGAGCAAUAUUACGGGCC | -2.53 ± 0.48 | -1.06 ± 0.4
16 | GGAAAGCAAUAUUACGUCGG | -3.51 ± 0.36 | –
17 | UUAGAGCAAUAUUACGAGAA | -1.75 ± 0.17 | -0.981 ± 0.21
18 | CGUGAGCAAUAUUACGGCCU | -2.22 ± 0.23 | -3.57 ± 0.46
19 | CAUUAGCAAUAUUACGACCU | -1.77 ± 0.45 | -1.77 ± 0.47
20 | UGCUAGCAAUAUUACGUGAA | -2.87 ± 0.14 | -0.167 ± 0.1
21 | ACCGAGCAAUAUUACGUUCU | -2.38 ± 0.074 | -1.01 ± 0.074
22 | AACAAGCAAUAUUACGUAUC | -4.08 ± 0.15 | -2.01 ± 0.11
23 | AUCAAGCAAUAUUACGGCCG | -0.0854 ± 0.092 | -0.00151 ± 0.15
24 | AUACAGCAAUAUUACGUAGG | -2.13 ± 0.11 | -0.536 ± 0.12
25 | GCUAAGCAAUAUUACGUCAU | -1.7 ± 0.095 | 0.727 ± 0.12

Row | Sequence | self-splicing fitness (ln) (30 °C) | self-splicing fitness (ln) (37 °C)
26 | ACAAAGCAAUAUUACGUUUG | -2.98 ± 0.1 | -1.65 ± 0.12
27 | CGUGAGCAAUAUUACGCGGG | -1.74 ± 0.25 | –
28 | CUUUAGCAAUAUUACGAACA | -3.07 ± 0.41 | –
29 | GCUAAGCAAUAUUACGGCCA | -0.635 ± 0.2 | -1.58 ± 0.2
30 | CACAAGCAAUAUUACGGCAG | -0.587 ± 0.051 | -0.0731 ± 0.064
31 | ACUUAGCAAUAUUACGACUA | -1.81 ± 0.17 | -0.513 ± 0.14
32 | GUCAAGCAAUAUUACGCCAG | -4.54 ± 0.28 | -3.95 ± 0.33
33 | UCCCAGCAAUAUUACGUUCC | -2.26 ± 0.21 | -2.44 ± 0.27
34 | AACUAGCAAUAUUACGGUGC | -2.46 ± 0.16 | -1.77 ± 0.15
35 | GAUCAGCAAUAUUACGUUUU | -0.968 ± 0.058 | 0.149 ± 0.08
36 | GCUCAGCAAUAUUACGAUUA | -0.516 ± 0.072 | -0.287 ± 0.08
37 | GGGAAGCAAUAUUACGUGGG | -3.64 ± 0.29 | -2.46 ± 0.24
38 | GCGAAGCAAUAUUACGACAU | -0.422 ± 0.012 | 0.0421 ± 0.032
39 | CCUAAGCAAUAUUACGUCUG | -2.15 ± 0.2 | -2 ± 0.24
40 | AACGAGCAAUAUUACGGGUU | -2.17 ± 0.18 | -2.05 ± 0.22
41 | UCUAAGCAAUAUUACGAAGC | -1.05 ± 0.39 | -1.8 ± 0.36
42 | ACGUAGCAAUAUUACGGCUA | -1.9 ± 0.12 | -2.26 ± 0.18
43 | ACAAAGCAAUAUUACGACUG | -0.48 ± 0.06 | -0.066 ± 0.09
44 | GGCGAGCAAUAUUACGCCUA | – | -1.76 ± 0.23
45 | AAUAAGCAAUAUUACGACAA | -0.398 ± 0.13 | -0.323 ± 0.12
46 | CUUCAGCAAUAUUACGGGGU | -3.95 ± 0.2 | -2.45 ± 0.25
47 | GUUCAGCAAUAUUACGAGAG | -0.895 ± 0.12 | -0.725 ± 0.12
48 | GAUGAGCAAUAUUACGUGUC | -3.53 ± 0.31 | –
49 | UAUUAGCAAUAUUACGAGGA | -2.33 ± 0.19 | -1.54 ± 0.18
